Test [1] has as its system mouse CRHR2. Description: CRH-induced luciferase reporter blocking assay, CHO-CRE-mCRHR2 cells. The conditions noted are these: CHO-CRE-mCRHR2 cells, 5 nM CRH. The class given is cell-based. The gist of the method: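 CHO-CRE cells stably expressing mouse CRHR2 were seeded overnight, then given serially diluted antibodies (8 points, 1:4) together with CRH at 5 nM final. After 4–6 h at 37 °C, CRE-driven luciferase was read by Bio-Glo luminescence.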
On the technique in general: In a reporter assay the amount or activity of a reporter protein is the signal.

The subject of test [2] is constitutively high plasma ACTH in Mrap1 KO mice. Description: Mrap1 KO mice constitutively high ACTH model. The conditions noted are these: for plasma ACTH concentrations in Mrap1 KO mice: single dose 20 mg/kg. The class given is in vivo, mouse. How it is done: 8-10 week old wildtype female C57BL/6 mice were obtained from Charles River Laboratories. Mrap1 KO mice were obtained from Queen Mary University of London, UK. SSR125543A, a small molecule CRHR1 antagonist, was obtained from Axon Medchem (Cat #Axon 1799). Mouse Corticosterone (55-Corms-E01) and adrenocorticotropic hormone (ACTH) ELISA kits (21-ACTHU-E01) were obtained from ALPCO, USA. All procedures were carried out in accordance with the Guide for the Care and Use of Laboratory Animals of the National Institutes of Health. Protocols were approved by Charles River Laboratories Institutional Animal Care and Use Committee (IACUC).
To generate Mrap1 KO mice, Mrap1−/− male mice were bred with Mrap1+/− female mice. Corticosterone hormone replacement was performed by administering 50 μg/ml in drinking water to breeder cages when female mice were pregnant and their pregnancies palpable (approximately embryonic day 10). Drinking water was changed weekly, and treatment was stopped at weaning. Mice were uniquely identified with ear tags at the time of tail clipping to match future genotype with each mouse. DNA was extracted from tail tissue and used to genotype mice.
[…] On day 2 or 3, 14 and 28, 200 μl of blood was collected in EDTA tubes from the submandibular vein of each mouse. Plasma was separated using a refrigerated centrifuge (4° C. at 500×g for 10 min) and snap-frozen in dry ice for subsequent ACTH ELISA measurement.

Test [3] relates to human CRHR2. The test is described as follows: CRH-induced luciferase reporter blocking assay, CHO-CRE-hCRHR2 cells. The class given is cell-based. The conditions noted are these: CHO-CRE-hCRHR2 cells, 0.1 nM CRH. The gist of the method:
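CHO-CRE reporter cells stably expressing mouse or human CRHR2 were treated with serially diluted antibodies (8 points, 1:4) plus CRH at final 5 nM (mCRHR2) or 0.1 nM (hCRHR2), 4-6 hours at 37° C. CRE-driven luciferase read by luminescence after 10 min with detection reagent.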

Test [4] deals with restraint-induced ACTH and corticosterone. The test is described as follows: Wildtype mice restraint-stress model (ACTH and corticosterone). The class given is in vivo, mouse. The following applies: mAb 5 mg/kg.
For test [5], the target named is T1, biotinylated CRH (Homo sapiens, UniProt P06850).
T1 construct: purchased GL Biochem 784751
T1 sequence (P06850 154-194): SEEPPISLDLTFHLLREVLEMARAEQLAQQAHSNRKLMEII
Description: Affinity determination with Octet. The class given is binding. The gist of the method:
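Biolayer interferometry: 30 nM biotinylated CRH loaded onto streptavidin sensors, 2-fold antibody dilutions as analyte in PBS kinetics buffer. Association 180 s, dissociation 800 s, glycine pH 1.5 regeneration; double-referenced data fitted for affinity.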
On the technique in general: In BLI a coated tip is dipped into the sample, and binding shifts an interference pattern.

Residue numbers refer to the chain shown, from its start.

Data on two molecules can be found in US20260042834A1, “ANTI-CORTICOTROPIN-RELEASING HORMONE ANTIBODIES AND POLYCYSTIC OVARY SYNDROME” (HBM ALPHA THERAPEUTICS, INC., priority 2022, published 2026).

B1: PR302334-24: humanized variant of Series 9 mAb PR302334; VH SEQ ID NO: 275, VL SEQ ID NO: 328 (antibody, V domains shown)
VH: EVQLVESGGGLVKPGGSLRLSCAASGFTFSTYAMSWVRQAPGKGLEWVASIRSGGTTYYPDSVKGRFTISRDNAKNSLYLQMNSLRAEDTAVYYCTRGIDWGQGTTVTVSS
VL: DIVMTQSPDSLAVSLGERATINCKASQSVNNDVAWYQQKPGQPPRLLIYYASNRYTGVPDRFSGSGSGTDFTLTISSLQAEDLAVYFCQQDYSSWTFGGGTKVEIK
modifications: PR302334-16 VH, PR302334-24 VH, PR302334-25 VH; PR302334-10 VL, PR302334-24 VL, PR302334-26 VL, PR302334-4 VL
With B1, the IC50 in test [1] was determined as 2.03 nM; in test [3] it was 2.01 nM. Moreover, the “inhibition of ACTH versus SSR125543A” value in test [2] (Mrap1 KO mice) is listed as “more complete inhibition”. For the same molecule, the “efficacy versus SSR125543A, ACTH levels” value in test [2] (Mrap1 KO mice, day 2 and day 14, figure legend, doses not given) was “superior efficacy”. In addition, the “efficacy in reducing plasma ACTH levels versus SSR125543A at 30 mg/kg” value is listed as “more efficacious” in test [2] (Mrap1 KO mice, mAb 5 mg/kg); “more efficacious” in test [2] (Mrap1 KO mice, mAb 10 mg/kg); “more efficacious” in test [2] (Mrap1 KO mice, mAb 20 mg/kg). Further, the “plasma ACTH concentrations in Mrap1 KO mice” value in test [2] is on record as “significantly reduced”. Also, the “efficacy in reducing plasma ACTH and corticosterone levels versus SSR125543A at 30 mg/kg” value in test [4] is reported as “more efficacious”. Also, the “kdis” value in test [5] was less than 1e-07 s⁻¹. Also, the “kon” value in test [5] turned out to be 606000 M⁻¹ s⁻¹.

B2: PR302334-26: humanized variant of Series 9 mAb PR302334; VH SEQ ID NO: 277, VL SEQ ID NO: 328 (antibody, V domains shown)
VH: B1 VH with K13Q, A74S
VL: B1 VL
modifications: PR302334-18 VH, PR302334-26 VH, PR302334-27 VH; PR302334-10 VL, PR302334-24 VL, PR302334-26 VL, PR302334-4 VL
On to B2, for which the IC50 in test [1] was determined as 1.47 nM. The “plasma ACTH concentrations in Mrap1 KO mice” value in test [2] is reported as “markedly reduced”. The molecule also returned a half-maximal inhibitory concentration (IC50) in test [3] of 1.24 nM. Moreover, in test [5], the “kdis” value is less than 1e-07 s⁻¹ and the “kon” value came to 329000 M⁻¹ s⁻¹.

In general, IC50 refers to the concentration that inhibits the measured activity by half. By kon is commonly meant the rate constant with which the complex forms.
